Experimental data published in US20240384288A1, “COUMARIN TRANSPORTERS AND USES THEREOF” (BASF PLANT SCIENCE COMPANY GMBH, priority 2021, published 2024).

Tested on: leaves of N. benthamiana plants
Assay: Transient expression of coumarin transporter in N. benthamiana leaves, coumarins in leaf wash water / leaves by HPLC
Format: in vivo
Experimental: Droplets of double-distilled water (30 μl) were evenly distributed on the surface of detached leaves placed in a petri dish (approx. 40 droplets on sunflower, 20 droplets on N. benthamiana). Samples were kept at RT for 24 h at high humidity. Subsequently, droplets were carefully collected without touching the leaf surface, filtered and used for HPLC analysis or germination assays.
For transient in planta overexpression assays cDNA sequences of GOIs were cloned in the plant overexpression vector pB7WG2D13 using the Gateway® cloning technology. Similar cloning steps are performed to generate transient in-planta overexpression constructs for any of the other coumarin transporter proteins A0A251U1Q8_HELAN, A0A5N6LHL1_9ASTR, A0A 1I9L1U9_ARTAN, A0A2J6KQ56_LACSA and A0A2G2ZJV1_CAPAN with A0A1S3XDP1_TOBAC as control. […]
Coumarin methanol extracts were centrifuged for 10 min at 21,000 rcf and 70 μl of the supernatant were separated via HPLC on a reverse phase C18 column (KROMAPLUS 100-5-C18 5.0, Prontosil). ddH2O and acetonitrile, both containing 1.5% (v/v) acetic acid, were used as solvents. […] Coumarin fluorescence was detected at λ=335 nm excitation and λ=460 nm emission (FP 920 Intelligent Fluorescence Detector, Jasco) or at λ=342 nm (UV absorbance). […] For quantification, a standard curve of commercial standards with known concentrations was measured.

B1: AtPDR9: already published Arabidopsis thaliana coumarin transporter, used as control (protein, UniProt Q9LFH0 1-1450, looked up)
ABC transporter G family …: MAHMVGADDIESLRVELAEIGRSIRSSFRRHTSSFRSSSSIYEVENDGDVNDHDAEYALQWAEIERLPTVKRMRSTLLDDGDESMTEKGRRVVDVTKLGAVERHLMIEKLIKHIENDNLKLLKKIRRRIDRVGMELPTIEVRYESLKVVAECEVVEGKALPTLWNTAKRVLSELVKLTGAKTHEAKINIINDVNGIIKPGRLTLLLGPPSCGKTTLLKALSGNLENNLKCSGEISYNGHRLDEFVPQKTSAYISQYDLHIAEMTVRETVDFSARCQGVGSRTDIMMEVSKREKEKGIIPDTEVDAYMKAISVEGLQRSLQTDYILKILGLDICAEILIGDVMRRGISGGQKKRLTTAEMIVGPTKALFMDEITNGLDSSTAFQIVKSLQQFAHISSATVLVSLLQPAPESYDLFDDIMLMAKGRIVYHGPRGEVLNFFEDCGFRCPERKGVADFLQEVISKKDQAQYWWHEDLPYSFVSVEMLSKKFKDLSIGKKIEDTLSKPYDRSKSHKDALSFSVYSLPNWELFIACISREYLLMKRNYFVYIFKTAQLVMAAFITMTVFIRTRMGIDIIHGNSYMSALFFALIILLVDGFPELSMTAQRLAVFYKQKQLCFYPAWAYAIPATVLKVPLSFFESLVWTCLSYYVIGYTPEASRFFKQFILLFAVHFTSISMFRCLAAIFQTVVASITAGSFGILFTFVFAGFVIPPPSMPAWLKWGFWANPLSYGEIGLSVNEFLAPRWNQMQPNNFTLGRTILQTRGMDYNGYMYWVSLCALLGFTVLFNIIFTLALTFLKSPTSSRAMISQDKLSELQGTEKSTEDSSVRKKTTDSPVKTEEEDKMVLPFKPLTVTFQDLNYFVDMPVEMRDQGYDQKKLQLLSDITGAFRPGILTALMGVSGAGKTTLLDVLAGRKTSGYIEGDIRISGFPKVQETFARVSGYCEQTDIHSPNITVEESVIYSAWLRLAPEIDATTKTKFVKQVLETIELDEIKDSLVGVTGVSGLSTEQRKRLTIAVELVANPSIIFMDEPTTGLDARAAAIVMRAVKNVADTGRTIVCTIHQPSIDIFEAFDELVLLKRGGRMIYTGPLGQHSRHIIEYFESVPEIPKIKDNHNPATWMLDVSSQSVEIELGVDFAKIYHDSALYKRNSELVKQLSQPDSGSSDIQFKRTFAQSWWGQFKSILWKMNLSYWRSPSYNLMRMMHTLVSSLIFGALFWKQGQNLDTQQSMFTVFGAIYGLVLFLGINNCASALQYFETERNVMYRERFAGMYSATAYALGQVVTEIPYIFIQAAEFVIVTYPMIGFYPSAYKVFWSLYSMFCSLLTFNYLAMFLVSITPNFMVAAILQSLFYVGFNLFSGFLIPQTQVPGWWIWLYYLTPTSWTLNGFISSQYGDIHEEINVFGQSTTVARFLKDYFGFHHDLLAVTAVVQIAFPIALASMFAFFVGKLNFQRR
Transporter transiently coexpressed with F6'H1, versus biosynthesis gene without transporter
  Scopoletin content in leaf wash water (LWW): no increased coumarin secretion
Transporter transiently coexpressed with F6'H1 plus OMT3, versus biosynthesis genes without transporter
  Scoparone content in leaf wash water (LWW): no increased coumarin secretion
